Common to all, as to format: cell-based, mouse
Assay [1] concerns alveolar macrophages (AM). The experiment in a line: Long-term liquid culture of alveolar macrophages in the presence of GM-CSF. On the procedure:
For culture of alveolar macrophages, alveolar lavages were pooled from ten 1 mL 37° C. BAL washes (PBS, 2 mM EDTA, 2% FBS (GE Healthcare) per mouse and stored on ice. RBC lysis was then performed at room temperature (RT) for 3 minutes (RBC Lysis Buffer, Invitrogen). Cells were plated at a density of at least 1.1 million cells per 10 cm bacterial petri dish (Greiner Bio-One) or NUNC non treated 6 well plates (>0.45-5*10^6 per well) in complete medium (RPMI, 10% FCS, 1% Pen/Strep, 1% Pyruvate, 1% Glutamate) supplemented with 1-2% GM-CSF supernatant from J558L cells transfected with murine GM-CSF cDNA. Medium was partially changed every two-three days. Cells were replated only at confluency and only at least one day after medium change. To avoid cell death during detachment, cells were detached with Accutase (StemCells Technologies) and 2 mM EGTA for 15 minutes at 37° C. without agitation or pipetting and careful monitored under the microscope for the detachment process. Only after a large number of cells started to round up and float, cells were carefully detached with a p1000 pipettte.
Cell Culture. […]

Assay [2] has as its system alveolar macrophages (AM). The assay can be described thus: In vitro BrdU incorporation by alveolar macrophages after stimulation with GM-CSF. As to conditions: cultured AM, 3 days after stimulation, 18 h BrdU pulse. On the procedure:
(§1) Cell cycle analysis. In vitro proliferation of macrophages was assessed using the Cell Proliferation ELISA (BrdU, colorimetric; Roche) according to manufacturer's instructions. In brief, 10-20 thousand freshly isolated macrophages were plated per 96 well in a tissue culture dish in complete medium (DMEM, 10% FCS, 1% Pen/Strep, 1% Pyruvate, 1% Glutamate). After macrophages had attached to the plastic, plating medium was replaced with complete medium containing the respective cytokine at indicated concentration. On day 2 after stimulation, BrdU was added to the culture and BrdU incorporation was assessed on day 3.
In general terms: Uptake of a labelled nucleoside into DNA is a usual measure of proliferation.

Assay [3] relates to peritoneal macrophages (PM). The assay can be described thus: In vitro BrdU incorporation by peritoneal macrophages after stimulation with GM-CSF. As to conditions: cultured PM, 3 days after stimulation, 18 h BrdU pulse. On the procedure:
Peritoneal macrophages were collected by peritoneal washout using 10 mL PBS containing 2 mM EDTA (Sigma). Red cell lysis was performed (RBC Lysis Buffer, Invitrogen) and cells were filtered through a 70 um mesh before further processing. Medium changes occurred every 3-4 days.
as §1

B1: GM-CSF: cytokine growth factor for leukocytes; used as supernatant from J558L cells transfected with murine GM-CSF cDNA (protein, UniProt P01587 18-141, looked up)
Granulocyte-macrophage …: APTRSPITVTRPWKHVEAIKEALNLLDDMPVTLNEEVEVVSNEFSFKKLTCVQTRLKIFEQGLRGNFTKLKGALNMTASYYQTYCPPTPETDCETQVTTYADFIDSLKTFLTDIPFECKKPGQK
On to B1, for which the “duration of expansion of AM in long-term liquid culture” value in assay [1] is “several months”. Also, the “BrdU incorporation in response to GM-CSF” value in assay [2] is on record as “incorprorated BrdU”; in assay [3], “not PM incorprorated BrdU”.

Values taken from patent US20240000833A1, “METHODS FOR EXPANDING A POPULATION OF ALVEOLAR MACROPHAGES IN A LONG TERM CULTURE” (Institut National de la Santé et de la Recherche Médicale, priority 2015, published 2024).
